Data from patent publication US20240034783A1 (SOTIO BIOTECH A S, published 2024).
Numbering of substitutions follows the chain as printed.

B1: IMAB362 (antibody, human IgG1, kappa, V domains shown)
VH: QVQLQQPGAELVRPGASVKLSCKASGYTFTSYWINWVKQRPGQGLEWIGNIYPSDSYTNYNQKFKDKATLTVDKSSSTAYMQLSSPTSEDSAVYYCTRSWRGNSFDYWGQGTTLTVSS
VL: DIVMTQSPSSLTVTAGEKVTMSCKSSQSLLNSGNQKNYLTWYQQKPGQPPKLLIYWASTRESGVPDRFTGSGSGTDFTLTISSVQAEDLAVYYCQNDYSYPFTFGSGTKLEIKR
notes: Control, chimeric IgG1, synthesized from the published chains; also called Claudiximab; Zolbetuximab
B2: IMAB362 after the Asn-deamidation stress test (antibody, human IgG1, kappa, V domains shown)
VH: B1 VH
VL: B1 VL
modifications: partly deamidated Asn after 1 week at pH 8.0 and 40 °C; sites not determined (NS motif at LC CDR1 aa 31-32 named as liable); partly deamidated Asn after 1 week at pH 8.0 and 40 °C; sites not determined (NS motif at HC CDR3 aa 103-104 named as liable)
notes: also called stressed IMAB362; deamidated IMAB362
B3: cCl1-1 (antibody, V domains shown)
VH: QIQLVQSGPELKKPGESVKISCKASGYTFTDYAMHWVKQAPGKGLKWMGWINTYTGKPTYADDFKGRFVFSLEASASTANLQISNLKNEDTATYFCARAVFYGYTMDAWGQGTSVTVSS
VL: DIQMTQSPASLSASLGETISIACRASEDIYSNLAWYQQKSGKSPQLLIFSVKRLQDGVPSRFSGSGSGTQYSLKISGMQPEDEGDYFCLQGSNFPLTFGSGTKLEIK
notes: Chimeric antibody from a rat hybridoma; not built in; also called chimeric cCl1-1 antibody
B4: hCl1a (antibody, human IgG1, kappa, V domains shown)
VH: QVQLVQSGAEVKKPGASVKVSCKASGYTFTDYAMHWVRQAPGQRLEWMGWINTYTGKPTYAQKFQGRVTITRDTSASTAYMELSSLRSEDTAVYYCARAVFYGYTMDAWGQGTLVTVSS
VL: DIQMTQSPSSLSASVGDRVTITCRASEDIYSNLAWYQQKPGKAPKLLIFSVKRLQDGVPSRFSGSGSGTDFTLTISSLQPEDFATYYCLQGSNFPLTFGQGTKVEIKR
notes: Humanized
B5: hCl1j (antibody, human IgG1, kappa, V domains shown)
VH: B4 VH with H35Y, T53A, F101Y
VL: B4 VL with A25T, S50A, V51I, N93K
notes: Humanized
B6: hCl1f (antibody, human IgG1, kappa, V domains shown)
VH: B4 VH with T53A
VL: B4 VL with F49Y
notes: Humanized
B7: hCl1h (antibody, human IgG1, kappa, V domains shown)
VH: B4 VH with H35Y, T53A, F101Y
VL: B4 VL with F49Y
notes: Humanized
B8: hCl1g (antibody, human IgG1, kappa, V domains shown)
VH: B4 VH with T53A
VL: B4 VL with A25T, L33F, F49Y, K52N, N93K
notes: Humanized
B9: hCl1e (antibody, human IgG1, kappa, V domains shown)
VH: B4 VH with H35Y
VL: B4 VL
notes: Humanized
B10: hCl1d (antibody, human IgG1, kappa, V domains shown)
VH: B4 VH with A61S
VL: B4 VL with A25T, L33F, F49Y, K52N, N93K
notes: Humanized
B11: hCl1c (antibody, human IgG1, kappa, V domains shown)
VH: B4 VH with A61S
VL: B4 VL with A25T, S50A, V51I, N93K
notes: Humanized
B12: hCl1i (antibody, human IgG1, kappa, V domains shown)
VH: B4 VH with H35Y, T53A, F101Y
VL: B4 VL
notes: Humanized
B13: hCl1b (antibody, human IgG1, kappa, V domains shown)
VH: B4 VH with A61S
VL: B4 VL
notes: Humanized

Tests used:
human CLDN18.2 [1] = biological target: T1, human CLDN18.2 (human); test: ELISA on CLDN18.2-lipoparticles
T1 construct: also called huCLDN18.2; hCLDN18.2
Protocol: (§1) CLDN18.2-lipoparticles and Null-lipoparticles (without antigens) were used to coat 96-well plates at a final concentration of 10 U/ml in 100 mM sodium carbonate, pH 9.6. Upon washing with PBS/0.05% Tween-20 (PBS-T) and blocking with PBS-T/3% BSA for at least 1 h at 37° C., 1:3 serial dilutions of hCl antibodies with a starting concentration of 2 μg/ml were added and incubated for at least 1 h at 37° C.

human CLDN18.2 [2] = biological target: T1, human CLDN18.2; test: flow cytometry titration, PA-TU-8988S-High cells
Protocol: (§2) In order to have a more homogenous cell population, the cells were sorted by FACS to select only cells with a the higher CLDN18.2 expression. […] After wash in FACS buffer, the cells were incubated with the PE-labeled Fey specific IgG goat anti-human secondary antibody (eBioscience) on ice for 30 min. After wash, the stained cells were resuspended in FACS buffer, analyzed and sorted by a FACSAria™ instrument, separating medium expressing cells from high expressing cells (FIG. 2B). […] HEK293T cells overexpressing CLDN18.2 or CLDN18.1 were generated as described in Example 3 and the expression of CLDN18.2 was analyzed by flow cytometry (FIG. 3).
(§3) A PE-coupled secondary anti-human IgG antibody was added to the cells for additional 30 min at 4° C. after washes with the FC buffer, followed by further washes with FC buffer. The cells were then resuspended in 100 μl FC buffer and measured with a FACSCalibur™ cell analyzer (BD Biosciences, USA).

human CLDN18.2 [3] = biological target: T1, human CLDN18.2; test: flow cytometry titration, HEK293T cells overexpressing CLDN18.2
Protocol: as §2, §3

human CLDN18.2 [4] = biological target: T1, human CLDN18.2; test: flow cytometry; % positive tumor cells divided by % positive healthy stomach cells
Protocol: (§4) Two Balb/c mice were implanted subcutaneously with 1×10⁶ A549 cells expressing CLDN18.2 in 100 μl of 50% Matrigel and tumors growth was monitored over a few weeks until the tumor reached the desired size between 150-450 mm 3. Healthy stomach tissue and tumor tissue was collected for FC analysis. The collected tissues were cut into small pieces and digested with the Miltenyi tumor dissociation kit (MACS Miltenyi Biotec, Germany). Tissue pieces were incubated with dissociation buffer (prepared according to the manufacturer instruction) in 6 well plates for 30 min in 37° C. under permanent gentle rocking motion. Samples were resuspended and strained through a 70 μm cell strainer (Corning, USA) followed by a wash with 20 ml FC buffer (PBS+2% FBS). Cell suspensions were centrifuged (5 min at 400 g for 4° C.) and the supernatants were discarded. If needed, cell suspensions were passed through a strainer and centrifuged repeatedly and pellets resuspended in 5 ml of red blood cell lysis buffer (Biolegend, USA), incubated on ice for 4 min. After incubation, 25 ml of PBS was added, and the suspensions were centrifuged again (5 min at 400 g for 4° C.). Pellets were resuspended in FC buffer (0.5-3 ml based on pellets). Equal number of cells were transferred into 96 well plates and further processed for FC analysis. The cells in the plates were washed with PBS and centrifuged (400 g for 2 min at 4° C.). […] After incubation, cells were washed twice in PBS and centrifuged (400 g for 2 min at 4° C.). Pellets were resuspended in 50 μl/well of secondary staining mix (PBS+PE-labelled anti-human antibody) (Thermo Fisher Scientific, USA), and incubated 25 min on ice. After incubation cells were washed again twice in PBS. Pellets were resuspended in 100 μl of PBS containing DAPI. Plates were kept on ice until FC analysis. For FC analysis, live cells were separated from dead cells by forward scatter and DAPI stain. Live cells were then gated for the presence of cytokeratin ([…]) and bound CLDN18.2 antibodies (PE positive cells).

human CLDN18.2 [5] = biological target: T1, human CLDN18.2; test: ELISA on CLDN18.2-lipoparticles, after Asn-deamidation stress test
Protocol: The stressed and non-stressed sample was stored at −80° C. Asn-deamidation and Asp-isomerization of the samples was analyzed by strong cation exchange (SCX) chromatography. Deamidation of Asn leads in a SCX chromatogram to an increase of the peak area before the main peak (bM), while Asp-isomerization leads in a SCX chromatograph to an increase of the peak area after the main peak (aM) (Du et al. 2012). SCX chromatography was performed on a MAbPac SCX-10 Column (ThermoFisher Scientific, Basel, CH), with buffer A at pH 4.0 and buffer B at pH 11.0. The flow rate was of 0.5 ml/min with a pH gradient of 30-80% buffer B. 10 μg of the sample in 20 μl of buffer A was injected into the column. Sample detection was performed by protein absorbance at 280 nm. […] NS motifs are the second most liable motifs for deamidation.
as §1

human CLDN18.2 [6] = biological target: T1, human CLDN18.2; test: flow cytometry, live cells from mouse tumor of A549 cells expressing CLDN18.2, antibody 4 µg/ml
Protocol: as §4

Row | Binder | EC50 (human CLDN18.2 [1]) | EC50 (human CLDN18.2 [2]) | Max MFI (human CLDN18.2 [2]) | EC50 (human CLDN18.2 [3]) | Max MFI (human CLDN18.2 [3]) | Ratio tumor/stomach (Average) (human CLDN18.2 [4]) | Ratio tumor/stomach (Mouse 1) (human CLDN18.2 [4]) | Ratio tumor/stomach (Mouse 2) (human CLDN18.2 [4]) | EC50 (human CLDN18.2 [5]) | fold change of EC50 against non-stressed IMAB362 (human CLDN18.2 [5]) | % of positive tumor cells (Average) (human CLDN18.2 [6]) | % of positive tumor cells (Mouse 1) (human CLDN18.2 [6]) | % of positive tumor cells (Mouse 2) (human CLDN18.2 [6])
1 | B1 | 0.0515 µg/mL | 0.508 µg/mL | 1050 MFI | 0.388 µg/mL | 1970 MFI | 0.88 | 2.53 | 0.29 | – | – | – | – | –
2 | B2 | – | – | – | – | – | – | – | – | 0.0951 µg/mL | 1.8 fold | – | – | –
3 | B3 | – | – | – | – | – | 74.3 | 92.5 | 50 | – | – | 26% | 37% | 15%
4 | B4 | – | 2.43 µg/mL | 1650 MFI | 0.598 µg/mL | 1880 MFI | 34.7 | 28.3 | 60 | – | – | 26% | 34% | 18%
5 | B5 | – | 1.16 µg/mL | 1700 MFI | 0.408 µg/mL | 1850 MFI | – | – | – | – | – | – | – | –
6 | B6 | – | 2.14 µg/mL | 1600 MFI | 0.795 µg/mL | 1720 MFI | 329 | 800 | 140 | – | – | 23% | 32% | 14%
7 | B7 | – | 1.75 µg/mL | 1950 MFI | 0.432 µg/mL | 2080 MFI | – | – | – | – | – | – | – | –
8 | B8 | – | 1.77 µg/mL | 1250 MFI | 0.678 µg/mL | 1440 MFI | – | – | – | – | – | – | – | –
9 | B9 | – | 2.24 µg/mL | 1860 MFI | 0.558 µg/mL | 1940 MFI | – | – | – | – | – | – | – | –
10 | B10 | – | 1.93 µg/mL | 1530 MFI | 0.541 µg/mL | 1640 MFI | – | – | – | – | – | – | – | –
11 | B11 | – | 1.47 µg/mL | 1050 MFI | 0.753 µg/mL | 1230 MFI | 74 | 290 | 20 | – | – | 18.5% | 29% | 8%
12 | B12 | – | 1.23 µg/mL | 2090 MFI | 0.444 µg/mL | 2180 MFI | – | – | – | – | – | – | – | –
13 | B13 | – | 1.98 µg/mL | 1720 MFI | 0.572 µg/mL | 1860 MFI | 53.1 | 43 | 131 | – | – | 30% | 43% | 17%
